In paper PMC7873233:

Legend:
[1] = target: 16055 SOSIP.v5.2 (HIV-1 (clade C isolate 16055)); assay: negative-stain EM; PGT145-purified protein, 20-50 ug/mL on carbon-coated Cu grids, 2% uranyl formate, 2D class averages; gp120-gp41 protomers to trimer
[2] = target: 16055 SOSIP.v8.3 (HIV-1 (clade C isolate 16055)); assay: as above

16055 SOSIP.v5.2 (complex)
percent native-like trimers [1]: 72%
stoichiometry N [1]: 3

16055 SOSIP.v8.3 (complex)
percent native-like trimers [2]: > 95%
stoichiometry N [2]: 3
